Measured values as given in publication PMC3986616, “Identification and functional characterization of a flax UDP-glycosyltransferase glucosylating secoisolariciresinol (SECO) into secoisolariciresinol monoglucoside (SMG) and diglucoside (SDG)” (BMC Plant Biology, 2014).

Key:
[1] = substrate: COc1cc(C[C@@H](CO)[C@H](CO)Cc2ccc(O)c(OC)c2)ccc1O; assay: UPLC-MS glucosylation assay, SDG formation, Lineweaver-Burk; type: biochemical, Linum usitatissimum; settings: SDG production (sequential glucosylation via SMG), 1.67 mM UDP-glucose fixed, pH 8.0, 30°C, 1 mM NaCl, 80 μg protein
[2] = substrate: O=c1ccn([C@@H]2O[C@H](CO[P@@](=O)(O)O[P@@](=O)(O)O[C@H]3O[C@H](CO)[C@@H](O)[C@H](O)[C@H]3O)[C@@H](O)[C@H]2O)c(=O)[nH]1; assay: as above; type: biochemical, Linum usitatissimum; settings: SDG production, 280 μM SECO fixed, pH 8.0, 30°C, 1 mM NaCl, 80 μg protein

B1: UGT74S1 (Linum usitatissimum) (protein)
chain: MAGDEREKAHCLVVPAAAQGHFTPLLQFSKRLIPKRIRVTLALTRFIHSTMTVTAQSGIHIDTISDGFDHSGLILQDPEHYSQTFRRVGSETLTDLIRKQSESRHPVHCIIYDASMPWFLDVAKRFGIVGAAFLTQSCAVNAIYYHLREGTIKRPVVSDPAAGTLVIDGLPPLEVSDLPSFIWDDLHTEFLAAHLRQFSNDGADWVFCNTVYQLELEAVDWLTKQWLINFRTIGPTIPSFYLDKQIPDDKDYDISIFNPQNQTCMNWLQSKPDGSVVYVSFGSLARLSPQQTEELYFGLKNSNHYFLWVVRESEVAKLPKEEYLSGEKGLVVSWCSQLQVLASGKVGCFVTHCGWNSTLEALSLGVPMVAMPECGDQLTNAKFIKDVWKTGVRAEADDGKGIMWGMIKREVIERCIREVMEGEETRRNADKWGKIIKEAVVEGGSSDKNTEDFATSLINFAETFQFSC
Work on B1 yielded a Km [1] of 79 µM, a kcat [1] of 0.89 s⁻¹ and a Km [2] of 1188 µM.
